Experimental findings from PMC8230800, “Interaction of Temporin-L Analogues with the E. coli FtsZ Protein” (Antibiotics, 2021) are described below.

Ends that are not written are not given here.

Sequences and labels used below:
B1: Escherichia coli FtsZ protein (enzyme, E. coli, UniProt P0A9A6 1-383, looked up)
chain: MFEPMELTNDAVIKVIGVGGGGGNAVEHMVRERIEGVEFFAVNTDAQALRKTAVGQTIQIGSGITKGLGAGANPEVGRNAADEDRDALRAALEGADMVFIAAGMGGGTGTGAAPVVAEVAKDLGILTVAVVTKPFNFEGKKRMAFAEQGITELSKHVDSLITIPNDKLLKVLGRGISLLDAFGAANDVLKGAVQGIAELITRPGLMNVDFADVRTVMSEMGYAMMGSGVASGEDRAEEAAEMAISSPLLEDIDLSGARGVLVNITAGFDLRLDEFETVGNTIRAFASDNATVVIGTSLDPDMNDELRVTVVATGIGMDKRPEITLVTNKQVQQPVMDRYQQHGMAPLTQEQKPVAKVVNDNAPQTAKEPDYLDIPAFLRKQAD
notes: also called recombinant FtsZ; source: E. coli BL21, overexpressed and purified as described previously [7]
B2: Native Temporin L (peptide)
peptide: FVQWFSKFLGRIL
notes: Temporin-L, amphibian antimicrobial peptide, 13 residues; also called TL; native TL
B3: TRIL (Temporin-L analogue) (peptide)
peptide: FVKWFKKFLTRIL
notes: Temporin-L with Q3K, S6K and G10T; Designed from the docking model of FtsZ with TL

Series [1] concerns the target T1, FtsZ (recombinant E. coli FtsZ) (Escherichia coli, UniProt P0A9A6).
T1 construct: made in house; host or cells: E. coli BL21
Put plainly: Fluorescence binding experiment (spectrofluorimetric titration). Conditions: FtsZ 12 μM, peptide 1 to 180 μM, 20 °C, excitation 280 nm, emission 347 nm, one site-specific binding fit, in duplicate; read-out: Kd of FtsZ-peptide complex. As for the experimental part:
Right panel (d–f): Diagram plots extrapolated from fluorescence data. The experiments were performed in duplicate and the standard deviation is reported as error bars.
(§1) Recombinant E. coli FtsZ was overexpressed and purified from E. coli BL21 strain as described previously. The purity of the protein was analyzed by SDS-PAGE 12.5% and its primary structure was validated by MALDI mapping strategy on a 5800 MALDI-TOF/TOF instrument (ABI Sciex, Foster City, CA, USA). The concentration of purified FtsZ was determined by Bradford’s method, using BSA as a standard. The protein was stored at −80 °C.
Fluorescence experiments were performed using a Fluoromax-4 spectrofluorometer from Horiba Scientific, using 1 cm optical path-length quartz cell under controlled temperature conditions (Peltier control system at 20 °C). The sample was analyzed, monitoring the fluorescence intensity of aromatic residues with an excitation wavelength of 280 nm. The wavelength range explored was 295–500 nm. […] All experiments were repeated in duplicate. The change in the fluorescence intensity of the reaction set was fitted into “one site-specific binding” equation of GraphPad Prism 5 (GraphPad Software, San Diego, CA, USA).

For series [2], the target named is T1, FtsZ (recombinant E. coli FtsZ). Briefly: GTPase activity assay (BIOMOL Green Pi release). The format is biochemical. The note with it: 35 µM peptide, GTP substrate, 25 mM PIPES/NaOH pH 6.8. As to the method: The putative effect of the two TL analogues on FtsZ GTPase activity was evaluated by enzymatic assays.
The reaction was performed for 10 min and the Pi release was determined by measuring the absorbance at 620 nm following 25 min incubation. (b) Lineweaver−Burk plots from which the KM constants were calculated. (c) Calculated KM constants and Vmax for the enzymatic assays. The experiment was performed in duplicate and presented as mean ± standard error.
as §1
The amount of Pi released during the assembly of FtsZ was measured using BIOMOL Green phosphate reagent (Biomol, Milan, Italy) as described earlier. […] The reaction was performed for 10 min and stopped by addition of 100 µL BIOMOL Green reagent. The Pi release was determined after incubation at 25 °C for 25 min by measuring the absorbance at 620 nm. The background was subtracted from all the readings. The experiment was performed in duplicate. […]

Series [3] deals with the molecule itself. Briefly: co-sedimentation; polymerization assay: FtsZ 12 µM in 25 mM PIPES/NaOH pH 6.8, 1 mM GTP, 25 °C 1 h, without or with 10, 30, 50, 70 µM peptide; centrifugation 14,000 rpm 60 min, pellet on SDS-PAGE, densitometry.
Series [4] concerns the target B1. Briefly: other fluorescence titration; intrinsic fluorescence of FtsZ (12 µM), excitation 280 nm, emission 347 nm, 20 °C, peptide from 1 to 180 µM, fitted to 'one site-specific binding', duplicate. The note with it: both partners purified.

The term Kd denotes the equilibrium constant for the complex coming apart. Turning to FVKWFKKFLTRILF [TRILF], in series [1], the dissociation constant Kd is 4.3 ± 0.2 µM.

Turning to Magainin-2, in series [2], the “effect on FtsZ GTPase activity (in words)” value is listed as “no effect on the GTP activity”.

B1: in series [3], the binding result is on record as “binds”.

Consider B2, for which the Kd in series [4] came out at 11 ± 1 µM.

Molecule B3 had a dissociation constant (Kd) in series [4] of 21.4 ± 1.1 µM.
